Data published in patent publication US20160216269A1 (BIOCARE MEDICAL, published 2016).

Target: T1, SOX10 epitope peptide QGGTAAIQAHYKSAH (human)
T1 construct: One of the overlapping peptides of about 15 amino acids covering human SOX10 147-253
T1 peptide: QGGTAAIQAHYKSAH
Test: epitope mapping with overlapping SOX10 peptides, direct ELISA and dot blot
From the text: In order to determine the peptide sequence of SOX10 that is recognized by anti-SOX10 antibodies such as BC34, epitope mapping may be conducted perhaps using two assays: direct ELISA and even dot blot. In an ELISA assay, the sensitivity and specificity of the anti-SOX10 [BC34] antibody may be determined by measuring the antibody titer at about 1:500 and about 1:1000. Overlapping peptides at a length of about 15 amino acids each, covering the human SOX10 protein sequence from perhaps 147 to 253 amino acids, may be used to determine a sequence of BC34 binding.

B1: mouse monoclonal anti-SOX10 antibody BC34 (antibody, V domains shown)
VH: QVTLKESGPGILQPSQTLSLTCSFSGFSLSTFLIGVGWIRQPSGKGLEWLAHIWWNDNKYYNTALKNRLTISKDTSNNQVFLKIASVDTTDTATYYCVRMAGIGGTDAMDYWGQGTSVTVSS
VL: DIVLTQSPASLAVSLGQRATISCRASEIVEYYGTNLLQWYQQKPGQPPKLLIYAASNVESGVPARFSGSGSGTDFSLNIHPVEEDDIAIYFCQQSRKVPWTFGGGTKLEIK
notes: also called anti-SOX10 antibody [clone BC34]; SOX10 [BC34]
B1: binds.
